# B1: PAMOI (phenylacetone monooxygenase with a C-terminal RIDD tag) (enzyme)
# chain: MAGQTTVDSRRQPPEEVDVLVVGAGFSGLYALYRLRELGRSVHVIETAGDVGGVWYWNRYPGARCDIESIEYCYSFSEEVLQEWNWTERYASQPEILRYINFVADKFDLRSGITFHTTVTAAAFDEATNTWTVDTNHGDRIRARYLIMASGQLSVPQLPNFPGLKDFAGNLYHTGNWPHEPVDFSGQRVGVIGTGSSGIQVSPQIAKQAAELFVFQRTPHFAVPARNAPLDPEFLADLKKRYAEFREESRNTPGGTHRYQGPKSALEVSDEELVETLERYWQEGGPDILAAYRDILRDRDANERVAEFIRNKIRNTVRDPEVAERLVPKGYPFGTKRLILEIDYYEMFNRDNVHLVDTLSAPIETITPRGVRTSEREYELDSLVLATGFDALTGALFKIDIRGVGNVALKEKWAAGPRTYLGLSTAGFPNLFFIAGPGSPSALSNMLVSIEQHVEWVTDHIAYMFKNGLTRSEAVLEKEDEWVEHVNEIADETLYPMTASWYTGANVPGKPRVFMLYVGGFHRYRQICDEVAAKGYEGFVLTGGGGSGGGGSGGGGSSLRECELYVQKHNIQALLKDSIVQLCTARPERPMAFLREYFERLEKEEAK
# B2: PTDHI (phosphite dehydrogenase with a C-terminal RIDD tag) (enzyme)
# chain: MLPKLVITHRVHEEILQLLAPHCELITNQTDSTLTREEILRRCRDAQAMMAFMPDRVDADFLQACPELRVIGCALKGFDNFDVDACTARGVWLTFVPDLLTVPTAELAIGLAVGLGRHLRAADAFVRSGQFRGWQPRFYGTGLDNATVGFLGMGAIGLAMADRLQGWGATLQYHARKALDTQTEQRLGLRQVACSELFASSDFILLALPLNADTLHLVNAELLALVRPGALLVNPCRGSVVDEAAVLAALERGQLGGYAADVFEMEDWARADRPQQIDPALLAHPNTLFTPHIGSAVRAVRLEIERCAAQNILQALAGERPINAVNRLPKANGGGGSGGGGSGGGGSSLRECELYVQKHNIQALLKDSIVQLCTARPERPMAFLREYFERLEKEEAK
# modifications: PTDH taken as the thermostable A176R variant of PDB 4E5P (cited in Figure 1); the exact pCRE2 variant and C-terminus are not printed. RIDD taken as the conventional RI-alpha docking domain …
# Columns and labels:
# [1] = target: the molecule itself; assay: SEC; each purified tagged protein alone, in the absence of any other tagged protein; Superdex 200 (10/300), 50 mM Tris–HCl with 150 mM NaCl, pH 7.5
# [2] = target: T1, PTDHI (phosphite dehydrogenase with a C-terminal RIDD tag); assay: as above; details: both partners purified
# T1 chain: B2 chain
Binder,stoichiometry N [1],stoichiometry N [2]
B1,2,
B2,,2
